In patent WO2010028797A1 (dated 2010):

Target: human CCR5 (human, UniProt P51681 1-352)
Experiment: cell-based or functional assay

Chain of human CCR5 (P51681 whole entry): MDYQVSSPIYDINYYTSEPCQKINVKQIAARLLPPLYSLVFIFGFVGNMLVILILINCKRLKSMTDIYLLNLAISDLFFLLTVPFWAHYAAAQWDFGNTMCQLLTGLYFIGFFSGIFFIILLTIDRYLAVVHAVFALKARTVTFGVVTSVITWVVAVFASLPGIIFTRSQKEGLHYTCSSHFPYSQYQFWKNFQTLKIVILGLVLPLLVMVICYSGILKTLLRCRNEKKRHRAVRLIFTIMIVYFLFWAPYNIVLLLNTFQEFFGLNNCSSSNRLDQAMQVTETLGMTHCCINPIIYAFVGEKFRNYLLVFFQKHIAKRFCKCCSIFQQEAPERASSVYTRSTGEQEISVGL

B1: BN-1000 (antibody, V domains shown)
VH: QVQLKQSGPGLVRPSQSLSITCTVSGFPLGIFGVHWVRQSPGKGLEWLGVIWKGGNTDYNAAFMSRLRITKDNSKSQVFFRMNSLQTDDTAIYYCAKVNLADAMDYWGQGTSVIVSS
VL: DIQMTQSPASLSASVGETVTITCRASGNIHGYLAWFQQKQGKSPQLLVYNTKTLAEGVPSRFSGSGSGTQFSLKINSLQPEDFGNYYCQHHYDLPRTFGGGTKLEIK
With B1 as the binder, how does the “IC50, antiviral assay in PBMC (HIV-1 NLBaL, p24 ELISA)” value read?
The value was 1.08 nM.
